Test results reported in publication PMC1874613.
Read-outs that look alike come from different tables or passages of the source.

Tests used:
C-SBP2 [1] = molecular target: T1, C-SBP2 (human, UniProt Q96T21 515-854); assay: EMSA
T1 sequence: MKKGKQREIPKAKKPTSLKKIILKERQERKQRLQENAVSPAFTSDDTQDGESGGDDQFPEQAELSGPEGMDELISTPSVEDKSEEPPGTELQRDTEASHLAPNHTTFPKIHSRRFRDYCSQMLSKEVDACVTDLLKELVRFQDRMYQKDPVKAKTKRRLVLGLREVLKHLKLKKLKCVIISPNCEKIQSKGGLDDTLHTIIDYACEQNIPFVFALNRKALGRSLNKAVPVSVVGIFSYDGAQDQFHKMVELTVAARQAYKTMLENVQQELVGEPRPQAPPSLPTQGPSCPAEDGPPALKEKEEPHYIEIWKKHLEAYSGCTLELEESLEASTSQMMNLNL

Snu13p [2] = molecular target: T2, Snu13p (yeast, UniProt P39990 1-126); assay: competition
T2 sequence: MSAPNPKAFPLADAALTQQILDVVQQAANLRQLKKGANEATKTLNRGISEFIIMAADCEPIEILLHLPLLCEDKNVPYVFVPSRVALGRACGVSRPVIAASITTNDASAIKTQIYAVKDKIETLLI

C-SBP2 [3] = molecular target: T1, C-SBP2; assay: EMSA; remark: listed apart in the source
Snu13p [4] = molecular target: T2, Snu13p; assay: EMSA
Snu13p [5] = molecular target: T2, Snu13p; assay: EMSA; remark: listed apart in the source
C-SBP2 [6] = molecular target: T1, C-SBP2; assay: EMSA; remark: listed apart in the source
Snu13p [7] = molecular target: T2, Snu13p; assay: EMSA; remark: listed apart in the source
C-SBP2 [8] = molecular target: T1, C-SBP2; assay: EMSA; remark: listed apart in the source

B1: Se3 (structured_RNA)
RNA: GGACCUUUGUACCCCAGAUGAUGCUUUAUCAGGCGGAUGGGUACAAAUGGCAG
binding result (C-SBP2 [1]): binds

B2: Se1:Ins + loop (structured_RNA)
RNA: GGACCUUUGUACCCCAGUUUAUGAUGGAUCUUCACUGAUCUUGAUCCCCUGGGUACAAAUGGCAG
binding result (Snu13p [2]): binds
binding signal (C-SBP2 [3]): 4 fold higher affinity than Se1

B3: Se2 (structured_RNA)
RNA: GGACCUUUGUACCCCAGAUGACGGCUCAUUUCGUGCUUGAUGGGUACAAAUGGCAG
binding result (C-SBP2 [1]): binds

B4: Se4 (structured_RNA)
RNA: GGACCUUUGUACCCCAGAUGAUAGUAAAGCGCGGCUUGAUGGGUACAAAUGGCAG
binding result (C-SBP2 [1]): binds

B5: Se6 (structured_RNA)
RNA: GGACCUUUGUACCCCAGAUGAUAGUAAGGCGCGGCUUGAUGGGUACAAAUGGCAG
binding result (C-SBP2 [1]): binds

B6: Se5 (structured_RNA)
RNA: GGACCUUUGUACCCCAGAUGAUAGUGAGGCGCGGCUUGAUGGGUACAAAUGGCAG
binding result (C-SBP2 [1]): binds

B7: Se1 (G-C)5 to (G.G)5 (structured_RNA)
RNA: GGACCUUUGUACCCCAGAUGAUGGCUUCACUGGUUGAUGGGUACAAAUGGCAG
binding signal (Snu13p [4]): ~20 fold lower affinity than Se1

B8: Se1 (structured_RNA)
RNA: GGACCUUUGUACCCCAGAUGAUGGCUUCACUGCUUGAUGGGUACAAAUGGCAG
Kd (Snu13p [5]): 35 nM
Kd (C-SBP2 [6]): 500 nM

B9: Se1:Ins (structured_RNA)
RNA: GGACCUUUGUACCCCAGAUGAUGGGCCUUCACUGGCCUUGAUGGGUACAAAUGGCAG
Kd (Snu13p [7]): 25 nM
Kd (C-SBP2 [8]): 300 nM
